Results taken from paper PMC10343800, “A Novel LSTM-Based Machine Learning Model for Predicting the Activity of Food Protein-Derived Antihypertensive Peptides” (Molecules, 2023).
Read-outs that look alike come from different tables or passages of the source. Ends that are not written are not given here. Peptide text beside a SMILES is read from it.

Legend:
ACE [1] = target: T1, ACE (Homo sapiens, UniProt P12821); assay: biochemical
Protocol: An online tool (https://www.genscript.com/sms2/random_protein.html accessed on 1 March 2023) was used to randomly generate peptides in order to test the efficiency of the model. The top peptides with a small number of IC50 values were selected for synthesis. […] The peptides used for validation were synthesized by Genescript with a purity > 97%. The ACE inhibitory assay was performed according to a previous study with modifications. ACE, N-hippuryl-His-Leu tetrahydrate (HHL, Sigma-Aldrich, St. Louis, MI, USA) and the peptide samples were dissolved in 100 mM of boric acid containing 300 mM of NaCl (pH8.3). Firstly, 10 μL of the peptide solution was preincubated with 50 μL of 6.5 mM HHL at 37 °C for 5 min. Then, 5 μL of 0.1UN/mL ACE (preincubated at 37 °C) was added to the reaction system and incubated at 37 °C for another 30 min. The reaction was terminated by adding 85 μL of 1 M HCl. The concentration of hippuric acid (Hip, the reaction product) was measured by HPLC with a C18 column (5 µm, 250 mm × 4.6 mm). The sample (20 μL) was eluted by a gradient of solvent A (H2O with 0.05% TFA) and solvent B (acetonitrile with 0.05% TFA) at a flow rate of 1.2 mL/min. The absorbance at 228 nm was monitored. The concentration of HA was calculated based on its standard curve. The area under each peak was calculated, in which A = the area under the peak of the blank group (without the peptide) and B = the area under the peak of the peptide group. The ACE inhibitory ratio = (A − B)/A. The ACE inhibitory ratio of each peptide at different concentrations was measured.

ACE [2] = target: T1, ACE; settings: in vitro ACE inhibition; read-out: Reported IC50; cited from earlier work
[3] = 6.5 mM HHL, 0.1 UN/mL ACE, 100 mM boric acid with 300 mM NaCl pH 8.3, 37 °C, 5 min preincubation, 30 min incubation, hippuric acid by HPLC C18, 228 nm, read-out: Experimental IC50

T1 sequence (P12821 30-1306, species assumed): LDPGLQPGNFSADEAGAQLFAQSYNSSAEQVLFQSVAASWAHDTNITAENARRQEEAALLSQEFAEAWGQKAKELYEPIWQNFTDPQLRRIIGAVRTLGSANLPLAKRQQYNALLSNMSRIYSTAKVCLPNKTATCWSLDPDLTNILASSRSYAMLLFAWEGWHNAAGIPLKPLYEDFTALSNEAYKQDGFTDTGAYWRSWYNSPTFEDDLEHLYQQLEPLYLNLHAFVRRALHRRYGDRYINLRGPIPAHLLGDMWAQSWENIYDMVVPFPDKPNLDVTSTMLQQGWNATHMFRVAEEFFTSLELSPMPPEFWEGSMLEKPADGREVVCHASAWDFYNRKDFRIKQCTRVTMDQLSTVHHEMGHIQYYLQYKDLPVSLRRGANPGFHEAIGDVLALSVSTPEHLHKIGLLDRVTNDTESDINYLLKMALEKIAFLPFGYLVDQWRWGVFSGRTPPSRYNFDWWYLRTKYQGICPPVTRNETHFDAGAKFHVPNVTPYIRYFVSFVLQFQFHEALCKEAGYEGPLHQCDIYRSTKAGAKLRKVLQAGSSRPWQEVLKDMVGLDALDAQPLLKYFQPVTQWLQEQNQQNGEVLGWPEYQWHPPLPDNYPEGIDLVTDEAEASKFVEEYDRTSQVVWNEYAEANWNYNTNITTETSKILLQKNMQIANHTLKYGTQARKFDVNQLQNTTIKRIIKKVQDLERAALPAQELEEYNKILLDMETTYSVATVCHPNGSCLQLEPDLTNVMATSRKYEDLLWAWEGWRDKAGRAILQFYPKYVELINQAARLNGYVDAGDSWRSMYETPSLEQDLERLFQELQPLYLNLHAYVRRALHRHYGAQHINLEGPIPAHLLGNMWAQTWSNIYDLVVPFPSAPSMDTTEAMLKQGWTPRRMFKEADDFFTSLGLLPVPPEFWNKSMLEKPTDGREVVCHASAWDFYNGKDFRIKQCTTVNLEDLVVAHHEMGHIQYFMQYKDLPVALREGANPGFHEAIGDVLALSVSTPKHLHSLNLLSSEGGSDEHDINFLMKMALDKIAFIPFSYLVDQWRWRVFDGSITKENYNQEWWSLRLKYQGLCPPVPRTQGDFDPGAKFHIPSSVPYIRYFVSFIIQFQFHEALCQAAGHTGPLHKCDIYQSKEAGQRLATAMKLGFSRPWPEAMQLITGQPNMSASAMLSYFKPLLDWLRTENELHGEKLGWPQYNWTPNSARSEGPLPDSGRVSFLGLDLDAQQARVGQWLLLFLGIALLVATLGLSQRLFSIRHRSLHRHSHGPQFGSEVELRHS

Molecule	IC50 (ACE [1]) [µM]	IC50 (ACE [2]) [µM]	other results
CC(C)C[C@H](NC(=O)[C@H](C)N)C(=O)N1CCC[C@H]1C(=O)N[C@@H](CC(=O)O)C(=O)O [ALPD] (H-ALPD-OH)	1.55		
C[C@H](NC(=O)[C@H](CCCCN)NC(=O)[C@H](CC(=O)O)NC(=O)[C@@H](N)Cc1ccccc1)C(=O)O [FDKA] (H-FDKA-OH)	0.6		
CC[C@H](C)[C@H](NC(=O)[C@@H](N)Cc1ccccc1)C(=O)O [FI] (H-Phe-Ile-OH)	0.31		
C[C@H](NC(=O)[C@@H]1CCCN1C(=O)CN)C(=O)N[C@@H](Cc1ccc(O)cc1)C(=O)O [GPAY] (H-GPAY-OH)	0.37		
CC(C)[C@H](NC(=O)CN)C(=O)N1CCC[C@H]1C(=O)N[C@@H](CCCCN)C(=O)O [GVPK] (H-GVPK-OH)	0.25		
N=C(N)NCCC[C@H](NC(=O)[C@H](Cc1c[nH]cn1)NC(=O)[C@H](CC(=O)O)NC(=O)[C@@H](N)Cc1c[nH]cn1)C(=O)O [HDHR] (H-HDHR-OH)	0.59		
CC(C)C[C@H](NC(=O)[C@H](CCCCN)NC(=O)[C@@H](N)CC(C)C)C(=O)O [LKL] (H-Leu-Lys-Leu-OH)			IC50 (ACE [1]; [3]): 0.56 µM
CC[C@H](C)[C@H](NC(=O)[C@@H]1CCCN1C(=O)[C@H](CCCCN)NC(=O)[C@@H](N)CC(C)C)C(=O)O [LKPI] (H-LKPI-OH)	0.39		
CC(C)C[C@H](NC(=O)[C@@H](NC(=O)[C@@H](N)CC(C)C)C(C)C)C(=O)O [LVL] (H-Leu-Val-Leu-OH)	0.32		
N[C@@H](Cc1c[nH]c2ccccc12)C(=O)N[C@@H](CC(=O)O)C(=O)O [WD] (H-Trp-Asp-OH)			IC50 (ACE [1]; [3]): 0.51 µM
AFVGYVLP		14.4	
CTFSIPAQC		24.4	
DAQSAPLRVY		12.2	
DKVGINYW		25.4	
EKSYELP		18	
FALPC [FALPC]	0.16		
GAAELPCSADWW		11	
HLNVVHGN		50.9	
IISKIK		1.19	
ILSKLK		4.02	
IPPAYTK		23.5	
IQWCA [IQWCA]	0.1		
KGYGGVSLPEW		0.7	
KIDKVVK		0.62	

Molecule	IC50 (ACE [1]) [µM]	IC50 (ACE [2]) [µM]	other results
KLPAY [KLPAY]	0.12		
LDSPSEGRAPG		17.9	
LEEFCC		1.85	
LKPDQ [LKPDQ]	0.88		
LKPNS [LKPNS]	0.5		
LLVTLKK		0.95	
LRLESF		5.39	
LVLPGE		13.5	
LVLPGELAK		184	
MLPAY		1.58	
PAGELHP		0.5	
PDFLI [PDFLI]	0.33		
PGSGCAGTDL		57.9	
PLPLL [PLPLL]	0.2		
RDGGYCC		0.84	
TFQGGlPPHGIQVER (TFQGGPPHGIQVER)		3.4	
TVTNPARIA		14.5	
VAWKL [VAWKL]	0.23		
VDSDVVK		8.64	
VELYP		5.22	
VHLAP [VHLAP]	0.33		
VISDEDGVTH		8.16	
VYHEL [VYHEL]	0.38		
WQVLPNAVPAK		1010	
